From patent US20240382614A1, “Self-Assembling Nanoparticles Based On Amphiphilic Peptides for Drug Delivery Applications” (Barinthus Biotherapeutics North America, Inc., priority 2021, published 2024)

Tests used:
[1] = tested on: coculture of antigen presenting cells and CD4 T cell clones (“OT-II cells”); test: IFNγ and IL-17 in supernatant of coculture of antigen presenting cells and OT-II CD4 T cell clones; format: cell-based; settings: D1 in particles of Compound 113 with D2 Compound 166, with or without D3 Compound 4 (Table 10)
Protocol: The cell culture supernatant was assessed for the cytokines IFNγ and IL-17 to assess for the proliferation of Th1- and Th17-type CD4 T cells, respectively (FIG. 11).

[2] = Turbidity (OD 490 nm) of particle formulations; format: physicochemical; settings: Table 15; no 2nd amphiphile
Protocol: It was unknown how the surface group (SG) would impact the tolerability of amphiphiles of formula S-B-H-D carrying an immunostimulant. Therefore, to evaluate the impact of surface group composition on tolerability, amphiphiles of varying SG and drug molecule composition were prepared and evaluated in mice (Table 15 and FIG. 14).

[3] = Solubility and loading of mTOR inhibitors in nanoparticle micelles of amphiphiles S-B-[U]-H; format: physicochemical; settings: admixed with amphiphile Compound 113
[4] = tested on: coculture of antigen presenting cells and CD4 T cell clones (“OT-II cells”); test: CD4 T cell induction in coculture of antigen presenting cells and OT-II CD4 T cell clones; format: cell-based; settings: D1 in particles of Compound 113 with D2 Compound 166 and D3 MDP, TDB, MPL, LPS or Compound 4 (Table 9, FIG. 10)
[5] = tested on: T1, Ac-A′SK(Ac)SB-AMC (Compound 18)
T1 sequence: XSKSX

[6] = tested on: T2, Ac-A′SPVnL-AMC (Compound 21)
T2 sequence: XSPVX

[7] = tested on: T3, Ac-A′VB-AMC (Compound 14)
T3 sequence: XVX

[8] = tested on: T4, Ac-A′SKVnL-AMC (Compound 23)
T4 sequence: XSKVX

[9] = tested on: T5, Ac-A′SK(Ac)SnL-AMC (Compound 24)
T5 sequence: XSKSX

[10] = tested on: T6, Ac-A′SPVB-AMC (Compound 15)
T6 sequence: XSPVX

[11] = tested on: T7, Ac-A′SKSnL-AMC (Compound 25)
T7 sequence: XSKSX

[12] = tested on: T8, Ac-A′SK(Ac)VB-AMC (Compound 16)
T8 sequence: XSKVX

[13] = tested on: T9, Ac-A′SK(Ac)VnL-AMC (Compound 22)
T9 sequence: XSKVX

[14] = tested on: T10, Ac-A′VnL-AMC (Compound 20)
T10 sequence: XVX

[15] = tested on: T11, Ac-A′SKSB-AMC (Compound 19)
T11 sequence: XSKSX

[16] = tested on: T12, Ac-A′SKVB-AMC (Compound 17)
T12 sequence: XSKVX

## COc1ccc(-c2ccc3c(N4CCOC[C@@H]4C)nc(N4CCOC[C@@H]4C)nc3n2)cc1CO [AZD8055]
[1]
  suppression of Th1-type CD4 T cell response (IFNγ): substantially improved T cell response suppression as compared with Rapa, CC223 and OSI-027

## CCOCc1nc2c(N)nc3ccccc3c2n1CC(C)(C)O [Compound R848]
[2]
  Turbidity: 0.039

## CC(C)n1nc(-c2ccc3oc(N)nc3c2)c2c(N)ncnc21 [INK-128]
[1]
  suppression of Th1-type CD4 T cell response (IFNγ): substantially improved T cell response suppression as compared with Rapa, CC223 and OSI-027

## CCC(=O)N1CCN(c2ccc(-n3c(=O)ccc4cnc5ccc(-c6cnc7ccccc7c6)cc5c43)cc2C(F)(F)F)CC1 [Torin 1]
[3]
  solubility in DMSO and aqueous buffer: markedly improved the solubility
[1]
  suppression of Th1-type CD4 T cell response (IFNγ): substantially improved T cell response suppression as compared with Rapa, CC223 and OSI-027
[4]
  suppression of T cell responses against D2: greater T cell suppression as compared with Rapamycin

## CNC(=O)Nc1ccc(-c2nc(N3CC4CCC(C3)O4)c3cnn(C4CCC5(CC4)OCCO5)c3n2)cc1 [WYE132]
[1]
  suppression of Th1-type CD4 T cell response (IFNγ): substantially improved T cell response suppression as compared with Rapa, CC223 and OSI-027

## Cathepsin B (Sino Biological)
[5]
  percent of peptide-AMC that is cleaved: norleucine (nL) and alpha-amino butyric (B or aBut) are tolerated at the P1 position
[6]
  percent of peptide-AMC that is cleaved: norleucine (nL) and alpha-amino butyric (B or aBut) are tolerated at the P1 position
[7]
  percent of peptide-AMC that is cleaved: norleucine (nL) and alpha-amino butyric (B or aBut) are tolerated at the P1 position
[8]
  percent of peptide-AMC that is cleaved: norleucine (nL) and alpha-amino butyric (B or aBut) are tolerated at the P1 position
[9]
  percent of peptide-AMC that is cleaved: norleucine (nL) and alpha-amino butyric (B or aBut) are tolerated at the P1 position
[10]
  percent of peptide-AMC that is cleaved: norleucine (nL) and alpha-amino butyric (B or aBut) are tolerated at the P1 position
[11]
  percent of peptide-AMC that is cleaved: norleucine (nL) and alpha-amino butyric (B or aBut) are tolerated at the P1 position
[12]
  percent of peptide-AMC that is cleaved: norleucine (nL) and alpha-amino butyric (B or aBut) are tolerated at the P1 position
[13]
  percent of peptide-AMC that is cleaved: norleucine (nL) and alpha-amino butyric (B or aBut) are tolerated at the P1 position
[14]
  percent of peptide-AMC that is cleaved: norleucine (nL) and alpha-amino butyric (B or aBut) are tolerated at the P1 position
[15]
  percent of peptide-AMC that is cleaved: norleucine (nL) and alpha-amino butyric (B or aBut) are tolerated at the P1 position
[16]
  percent of peptide-AMC that is cleaved: norleucine (nL) and alpha-amino butyric (B or aBut) are tolerated at the P1 position
